# Patent US7070943B2 (priority 1998, dated 2006)
# B1: ONCONASE®: basic protein of 12,000 MW isolated from oocytes or early embryos of Rana pipiens, homologous to pancreatic RNase A (protein, UniProt P22069 1-104, looked up)
# Protein P-30: QDWLTFQKKHITNTRDVDCDNIMSTNLFHCKDKNTFIYSRPEPVKAICKGIIASKNVLTTSEFYLSDCNVTSRPCKYKLKKSTNKFCVTCENQAPVHFVGVGSC
# Legend:
# Assay type in all cases: cell-based, Human
# [1] = test system: p27^KIP1; assay: Western blot of p27^KIP1 in U937 cells; conditions: U937, 17 and 170 nM, 72 h; not detected in Exp cells
# Excerpt: (§1) To reveal specificity of the antibodies that were used, a standard immunoblotting procedure was used on cellular lysates.
# [2] = test system: cyclin E; assay: Cyclin E expression by multiparameter flow cytometry in U937 cells; conditions: U937 cells growing in presence of drug
# Procedure: (§2) Following incubations in the absence or presence of ONCONASE®, the cells were washed with phosphate-buffered saline (PBS) and fixed in suspension in either ice-cold 80% ethanol or absolute methanol for up to 24 h. After fixation, the cells were washed twice with PBS and then suspended in 1 ml of 0.25% Triton X-100 (Sigma, St. Louis, Mo., USA) in PBS on ice for 5 min. The cells were then centrifuged (300 g, 5 min), the cell pellet suspended 100 μl PBS containing 0.5 μg of the anti-cyclin (or anti-CKI) mAb and 1% bovine serum albumin (BSA; Sigma), and incubated for 2 h at room temperature. […]
# (§3) Cellular fluorescence was measured with the ELITE ESP flow cytometer/cell sorter (Coulter, Miami, Fla., USA) using either argon ion laser (emission at 488 nm) alone or combined with helium-cadmium laser (emitting UV light). In the first case, fluorescence signals were collected using the standard configuration of the flow cytometer (green fluorescence, representing directly or indirectly FITC-labeled antibodies; red fluorescence representing CYCHROME® tagged anti-pRB^T mAb). In the second case, DNA content was analyzed based on DAPI fluorescence (blue emission) excited by UV light, while the anti-pRB^P− mAb (FITC) and anti-pRB^T (Cy-Chrome®) related emission was excited with blue light laser.
# [3] = test system: cyclin D3; assay: Western blot of cyclin D3 in U937 cells; conditions: U937, 48 h
# Procedure: (§4) Anti-cyclin D3 mAb immunofluorescence in combination with DNA content was measured by multiparameter flow cytometry (a). The cells were growing either in the absence (Exp, exponential growth) or in the presence of 170 nM ONCONASE® for 48 hours (Onc). There were 48%, 38% and 14% of cells in G1, S, and G2/M in Exp culture compared with 64%, 24% and 13% cells in G1, S, and G2/M, respectively, in Onc culture. The scattergrams represent bivariate distributions of the cells with respect to their cyclin D3 vs. DNA content associated fluorescence intensities. The upper level of the isotype-matched control (mean fluorescence+3 standard deviations) is marked in the Exp panel with a dashed line. The bar plots represent the mean FITC (anti-cyclin D3 mAb) fluorescence values (arbitrary units) of the cells in different phases of the cycle (gated based on differences in DNA content as shown in the Exp panel), after subtraction of the background fluorescence, i.e., mean fluorescence of the same cells but stained with isotype-matched control IgG antibody. Western blots (b) show expression of cyclin D3 in control culture and in the culture treated with Onconase 48 h;
# as §1
# [4] = test system: total pRB; assay: Total pRB in U937 cells, anti-pRB^T mAb flow cytometry
# Excerpt: Also shown are cells from the culture at higher cell density (>10^6 cells/ml) where proliferation declined because of cell crowding (d). The cells reacting with anti-pRB^P− were in G0/1 phase (open arrows). The dashed line indicates the upper level of background fluorescence, i.e. of the cells pretreated with alkaline phosphatase. The percentage of cells reacting with anti-pRB^P− mAb was increased in the ONCONASE®-treated and crowded cultures compared to the control. No significant changes in expression of pRB detected by the antibody that reacts with this protein regardless of its phosphorylation status (anti-pRB^T) were observed between ONCONASE®-treated and control cells (not shown).
# The status of phosphorylation of pRB in individual cells was monitored using a combination of anti-pRB antibodies, one specifically detecting underphosphorylated pRB (anti-pRb^P− mAb) and another which reacts with total pRB, regardless of its phosphorylation (anti-pRB^T mAb). […] The cells were then rinsed with PBS containing 1% BSA and their pRB associated green (anti-pRB^P−) and red (anti-PRB^T) fluorescence was measured by flow cytometry.
# Cellular fluorescence was measured with the ELITE ESP flow cytometer/cell sorter (Coulter, Miami, Fla., USA) using either argon ion laser (emission at 488 nm) alone or combined with helium-cadmium laser (emitting UV light). […]
# [5] = test system: p21^WAF1/CIP1; assay: Western blot of p21^WAF1/CIP1 in U937 cells; conditions: U937, 170 nM, 72 hours
# Excerpt: as §1
# [6] = test system: U937 cells; assay: Cell cycle distribution and apoptotic (sub-G1) cells by DNA content flow cytometry; conditions: U937, 170 nM
# Procedure: FIG. 11 presents growth and viability curves (a) as well as cell cycle distribution (b) of U937 cells maintained in the absence (CTRL) and presence of 170 nM (2.0 μg/ml) ONCONASE® (ONC) for up to 72 h. The percentage of dead cells was estimated based on the trypan blue exclusion test. The percentage of cells in the respective phases was estimated flow cytometrically based on their DNA content. Apoptotic cells (Ap) were recognized as the cells with fractional DNA content (sub-G1), as previously described;
# as §4
# as §2, with “temperature. Anti-cyclin D3 (clone G107-565); anti-cyclin E (clone HE12); anti-p16^INK4a (clone G175-405); and […] (clone SX118) and anti-p27^KIP1 (clone G173-524) mAbs, all were obtained from PharMingen (San Diego, Calif., USA). After incubation with the respective mAbs the cells were rinsed with PBS containing 1% BSA and incubated with the FITC-conjugated goat anti-mouse IgG antibody (Molecular Probes) diluted 1:30 in PBS containing 1% BSA for 30 min at room temperature in the dark.” for “temperature.”
# as §3, with “laser. […]” for “laser.”
# [7] = test system: p27^KIP1; assay: p27^KIP1 expression by flow cytometry in U937 cells; conditions: U937, 170 nM, 72 hours
# Procedure: as §2, §3
molecule,measurement,setting,value
B1,"p27^KIP1 bands, Western blot",[1],strong bands
same,expression of cyclin E,[2],not significantly changed
same,"expression of cyclin D3, Western blot",[3],decrease in expression of cyclin D3
same,effect on total pRB (anti-pRB^T),[4],no effect
same,"p21^WAF1/CIP1 band, Western blot",[5],band only in the ONCONASE®-treated cells
same,cells in G2/M,[6]; 48 hours (Exp culture 14%),13%
same,cells in S,[6]; 48 hours (Exp culture 38%),24%
same,cells in G1,[6]; 48 hours (Exp culture 48%),64%
same,proportion of cells in G0/1 phase,[6]; after 72 h (from 47% in control),~70%
same,percentage of apoptotic cells (sub-G1),[6]; up to 72 h (from 2%),6%
same,increase in p27^KIP1,[7],Over four-fold
